Target: rat nerve growth factor gamma (rat)
Experiment: kinetic constants for the interaction of BAIT with proteinases; method not described

Sequence of human BAIT (Brain-Associated Inhibitor of Tissue-Type Plasminogen Activator), mature protein expressed in baculovirus/Sf9 cells and purified (Q99574 19-410): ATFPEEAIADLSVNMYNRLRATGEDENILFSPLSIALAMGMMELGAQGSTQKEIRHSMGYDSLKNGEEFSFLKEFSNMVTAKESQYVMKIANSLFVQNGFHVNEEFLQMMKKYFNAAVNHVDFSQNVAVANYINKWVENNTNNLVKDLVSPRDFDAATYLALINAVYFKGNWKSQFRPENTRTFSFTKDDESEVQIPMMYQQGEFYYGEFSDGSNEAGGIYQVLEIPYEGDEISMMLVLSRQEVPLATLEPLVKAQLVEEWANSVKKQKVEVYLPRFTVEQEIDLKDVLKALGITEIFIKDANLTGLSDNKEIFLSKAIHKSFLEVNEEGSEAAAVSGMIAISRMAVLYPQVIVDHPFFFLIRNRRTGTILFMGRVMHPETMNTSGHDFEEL

“human BAIT (Brain-Associated Inhibitor of Tissue-Type Plasminogen Activator), mature protein expressed in baculovirus/Sf9 cells and purified (from UniProt Q99574 19-410)” gave a K of 1.3 µM, a k of 0.0086 s⁻¹ and a ki of 6500 M⁻¹ s⁻¹.

Reference: patent publication US20040203101A1
